Assay: yeast display, Sf9 membrane polyspecificity reagent, FACS + sequencing; frameworks hold sequencing errors
Outline: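 A nanobody's polyreactivity label depends on the gate it was sorted from. Yeast display cells were stained with 10% biotinylated, detergent-solubilized Sf9 membrane reagent for 1 hour at 4 °C, enriched on streptavidin microbeads and sorted by FACS. The low and high (top ~1%) gates were set on anti-HA fluorescence for expression and streptavidin fluorescence for reagent binding.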

Row | Sequence | polyreactivity (PSR sort gate)
1 | QVKLVESGGGLVQAGGSLRLSCAASGSTFPTNAMVCYRQAPGKERELVAGITEGGSSTYYADSVKGRFTISRDNAKNTVYLQMNSLKPEVTAVYYCAADVLWYGPFWVRQDDYWGQGTQVTVSS | high polyreactivity
2 | QVKLVESGGGLVQAGGSLRLSCAASGSTFWIYAMAWYRQAPGKERELVAAISWRGGRTYYADSVKGRFTISRDNAKNTVYLQMNSLKPEDSAVYYCYAQKRDGSMGYWGQGTQVTVSS | high polyreactivity
3 | QVKLVESGGGLVQAGGSLRLSCAASGSTFYKYTMGWNRQEPGKGRELVAAINWSGSTYYADSVKGRFTISRDNAKNTVYLQMNSLKTEDTAVYYCAATYIYRYDYWGQGTQVTVSS | high polyreactivity
4 | QVKLVESGGGLVQAGGSLRLSCADSGRIFYIYAMGWYRQSPGKERELVAAISSGGTTNYADSVKGRLTISRDNAKNTVYLQMNSLKPEDTAVYYCACYWRSRNRFYWGQGTQVTVSS | high polyreactivity
5 | QVKLVESGGGLVQAGGSLRLSCGASGSIFRWYALGWYRQAPGKERELVAAIDYSGGSTYYADSVKGRFTISRDNAKNTVYLQMNSLKPEDTAVYYCAATAFYGGFLRYDYWGQGTQVTVSS | low polyreactivity
6 | QVKLVESGGGLVQAGGSLRLSCGASVGTFYRYSMVWFRQAPGKERELVAVISKRGGTTYYADSVKRRFTISRDNANNTVNLQMNSLKPEDTAVYYCADRPYYWGQGTQVTVSS | high polyreactivity
7 | QVKLVESGGGLVQAGGSLRLSCPASGFIFYDYVMGWYRQAPGKERELVAAISSNGGSTYYADSVKGRFSISRDNAKYTVYLQMNSLKPEDTAVYYCAAEGKSYPWPWYFDYWGQGTQVTVSS | high polyreactivity
8 | QVKLVESGGGLVQAGGSLRLSCPASGRIFYTNARGWSRQQPGQESEFVAAISYSGGTTYYADSVKGRFTISRDNAKNNVYLQMNSLKPEDTAVYYCARRYRSYYYRSKMDYWGQGTQVTVSS | high polyreactivity
9 | QVKLVESGGGLVQAGGSLRLTCAASGSNFDINAMGWYRQAPGKERELVAAISWSGGDTYADSVKGRFTISRDNAKITVYLQMNCLKPEDTAVYYCDTGDPHEEQYYYDYCGQGTQVTVSS | low polyreactivity
10 | QVKLVESGGGLVQAGGSRRLSCAASGLIFYSYAMGWSRQAPGKERELVAAISSRGGSTYYADSVKGRFTISRDNAKNTVYLQMNSLKPDDTAVYYCNAYFLLPHYDYWGQGTQVTVSS | low polyreactivity
11 | QVKLVESGGGLVQEGASLRLSCAASGRIFGNYAMGWYRQAPGKERELVAAIDLSGDSTYYADSVKGRFTISRDNAKNTVYLQMNSLKPEDTAVYYCAATDWFSEYYWGQGTQVTVSS | low polyreactivity
12 | QVKLVESGGGVVQAGGSLSLSCAASGRIFGGNAMGWYRQAPGKERELVAAISRTGGSTYYADSVKGRFTISRDIAKNTVYLQMNSLKPEDTAVNYCNAVYRYAHPMEYWGQGTQVTVSS | high polyreactivity
13 | QVKLVESGGVLVQAGGSLRITCAGSGRIFSRYVMGWYRQAPGKETEFVAYITWSGSSTFYADSVKGRFTISRDNAKNTGYLQMNSHKPEDSAVYFCAALGLLSPSPWGTHISEYDSWGQGTQVTVSS | low polyreactivity
14 | QVKLVESGGVLVQAGGSLRLSCADSGRTFYPYAMGWYRQGPGKDRELVAAISRSGGSTYADSVKGRFTISRDNAKYTVYLQMNSLKPEDTAVYYCATRRKTYLSFNYDYWGQGTQVTVSS | low polyreactivity
15 | QVKLVESGVGLVQAGGSLRLSCAASGSTLTRNAMGWYRQAPGKERELVAAITQRGGSTYYADSVKGRFTLSRDNAKNTVYLQMNSLKPEDTAVYYCNVRAFHKQYSEYDYWGQGTQVTVSS | high polyreactivity
16 | QVLLQESGGGLVQAGGSLRLGCAASGTISPAYYMGRNHQAPGKEREFVAAITYGTNTYYADSVKGRFTISRDNAKNTVYLQMNSLKPEDTAVYYCSATAGYNGAHDYWGQGTQVTVSS | low polyreactivity
17 | QVLLQESGGGLVQAGGSLRLGCAASGTISPAYYMGRSLQAPGKEREFVAAITYGTNTYYADSVKGRFTISRDNAKNTVYLQMNSLKPEDTAVYYCSATAGYNGAHDYWGQATQVTVSS | low polyreactivity
18 | QVLLQESGGGLVQAGGSLRLGCAASGTISPAYYMGRYHQAPGQEREFVAAITYGTNTYYADSVKGRFTISRDNAKNTVYLQMNSLKPEDTAVYYCSATAGYNGAHDYWGQGTQVTVSS | low polyreactivity
19 | QVLLQESGGGLVQAGGSLRLSCAASGNIFSAGGMGWYRQAPVNERELVAGIGTGTSTNYADRVKGRFTISRDNAKNTVYLQMNSLKPEDTAVDYCAAAYYSGLSHWYWGQGTQVTVSS | low polyreactivity
20 | QVLLQESGGGLVQAGGSLRLSCAASGTISTDIRMGWYRLAPGKEREFVASIDGCSTTYYADSVKGRFTISRDNAKNTVYLQMNSLKPEDTAMYYCSAREATEFYLFYWGQGTQVTVSS | low polyreactivity
21 | QVLLQESGGGLVQAGGSLRLSCAASGTISTDIRMGWYRLAPGKEREFVASIDGCSTTYYADSVKGRFTISRDNAKNTVYLQMNSLKPEDTEMYYCAAREATEFYLYYWGQGTQVTVSS | low polyreactivity

Row | Sequence | polyreactivity (PSR sort gate)
22 | QVLLVDSGGGLVHAGGIHRLSCHASVGIFSWYDMGLYRQAPGKERELVAAISWSGGSTYYAYSVKGRFTISRDNAKNTVYLQMNSLKPEDTAVYYCAAYTADYYDYWGQGTQVTVSS | high polyreactivity
23 | QVLLVEAGRGLVQAGGSLRLSCAASGSIVVGYAMGCYRQAPGKERELVATISYSGDSTYYADSVKGRFTISRDNAKNTVYLQMNSLNPEDSAVYYCATESNGSPYKGDYWGQGTQVTVSS | low polyreactivity
24 | QVLLVESGGGLVQAGGSLRISCAASGRISSRNAMGWYRQAPGKERELVAGITSGGSTNYADSLKGRFTISRDNAKNTVYLQMNSLKPEDTAVYYCAKRSRTYRYGYDYWGQGTQVTVSS | high polyreactivity
25 | QVLLVESGGGLVQAGGSLRLICAASGSIFGVYAMGWFRQAAGKDRELVAAISLSGTSTYYADSVKGRFTISRDNAKNTVYLQMNSLKAEDTAVYYCAAPWRLFSLYDYWGQGTQVTVSS | low polyreactivity
26 | QVLLVESGGGLVQAGGSLRLSCAASGFIFYLNGMGWYRQAPGKERELVAAISGRGGRTYYADSVKGRFTISRDNAKNTVYLQMNSLIPEDTAVYYCAAQYVPSRYGYWGQGTQVTVSS | high polyreactivity
27 | QVLLVESGGGLVQAGGSLRLSCAASGFTFGTNAMVWYRQAPGKERELVAAISSRGGSTYYADSVKGRFTISRDNAKNTVYLLMNSLNPEDTAVYYCARRVARRQHEYGYWGQGTQVTVSS | high polyreactivity
28 | QVLLVESGGGLVQAGGSLRLSCASSGNTFYVNVMGWYRQAPGKEREFVAAISTRGVSTSYADSVKGRYTISRDNAKNTVYLDMNTLKPEDTAVYYCAASFRRPQPKGTTYGYWGQGTQVTVSS | high polyreactivity
29 | QVLLVESGGGLVQAGGSLRLSFAASGITFYGYDMGWYRQATGKERELVAAITSDGITNYADSVKGRFTISRDNAKNTVYLQMNSLKPEDTAVYYCAADVSFYRRYEWYYYWGQGTQVTVSS | low polyreactivity
30 | QVLLVESGGGLVQAGGSLSISCAASGSTFGYYPMGWYRQAPGKEREFVAAISSRDGSTFYADSVQGRFTISRDNAKNTVYLQMNSLKPEDTAVYYCAKVFFHTPIVPEYDYWGQGTQVTVSS | low polyreactivity
31 | QVLLVESGRVLVQAGGSLRLSCAASVSIFANYAMARYIQAPGKERELVASITSSARRTFYADSVKGRFTISRDNAKNTVYLQMNSLKPEVTAVYYCAAKHRRRTVSTRYDDWGQGTQGTVSS | high polyreactivity
32 | QVLRVDSGGGLVQAGGSLRLSCAASGSIFGFYARGWDRQAPGTERELVAAITFSGGSTDYTDSVKGRFTISSDNAKNTVYLQMNSLKTEDTSVYYCADRGYAIYSYWYYEPYDYWGQGTQVTVSS | high polyreactivity
33 | QVNLVESGGGLVQAGGSLRLSCAASGLTFARNAMGWYSQAPGKERELVASITSVGRTNYADSVKGRFTISRDNAKNTVYLEMNSLKPEDTAVYFCGAKPSWHGVYYWGQGTQVTVSS | low polyreactivity
34 | QVNLVESGGVSVQAGGSLRLSCAASGLIFDKYAMGWYRQAPGKERELVAAITRSSGTTYYADSVKGRFTISRDNAKNTVYLLLISVTPEDTAVYYCPAPFIWGYWGVGYYYWGQGTHVTVSS | low polyreactivity
35 | QVNLVETGGGLVQAVCSLRLSCAASGSIFGIYTMGWYRQAPGKERELVAAINSGGSTIYADSVKGRFTISRDNAKNTVYLQMNSLKPEDSAVYYWIAYIHPPGPRVYSREYDYWGQGTQLTVSS | low polyreactivity
36 | QVNLVYSAGGLVQAGGILRLSCTASGCTFYYNAMGWYRQEPGKVREVVARISRSGGSTYEDSVKGRFTISRDNAKNTVYLPMNSLKPEDTAVYYCNADAYGTPEFTSYAVSYDLWGQGTQVTVSS | low polyreactivity
37 | QVPLVESGGGLVQAGGILRLSCAASGRTFRYNVMGCYRQAPGKERELVASISRISGSTYYADSVKGRFTISRDNAKNTVYLQMNSLKPEDTAVYYCAATVKLKHYPYVGFGYWGQGTQVTVSS | high polyreactivity
38 | QVPLVESGGGLVQAGGRLRLRCAASAFTFDSYAMGWNRQAPGKERELVAAITWSGGSTYSADSVKGRFTISRDNAKNTVYLQMNSLQPEDTAVYYCNVYRYDGDYWGQGTQVPVSS | high polyreactivity
39 | QVPLVESGGGLVQAGGSLRLSCAASGGIFYSYAMGWYRQAPGKERELVPAIRTNGGTTYYADSVKGRFTISRDNAKNTVYLQLNSLKQEDTAVYYCDALPGSYYDRGEYDYWGQGTQVTVSS | low polyreactivity
40 | QVPLVESGGGLVQAGGSLRLSCAASGLIFTGYAMGWYRQAPGKEREVVAAITSAGSTNYADSVKGRFTISRDNAKNTVYLQMNSLKPEDTAVYYCGASRTTTFSWYYLYYLVSKYYYWGQGTQVTVSS | low polyreactivity
41 | QVPLVESGGGLVQAGGSLRLSCAASGLTVSSYAMGWYRQAPGKERELVAVFSRTGGSTYYADSVKGRFTISRDNAKNTVYLQMNSLKPEDTAVYYCAARSYNGWRYDSWGQGTQVTVSS | high polyreactivity

Reference: the nanobody polyreactivity screen of Harvey et al. (2022)
